The text below walks through data of paper PMC5466808.

Assay [1] concerns the target full length human G208C NFU1 (human) (UniProt Q9UMS0). Kind of assay: AUC.
Assay [2] shares this target. The assay is described as follows: AUC. This is another data set of the same source.

Values joined by “and” are separate entries in the source; they are usually repeats but may differ in a detail not shown here. Equal values may be shown once. Read-outs that look alike come from different tables or passages of the source.

As a reminder, the stoichiometry N is a count of units in the complex or per binding partner.

For “full length human G208C NFU1 (from UniProt Q9UMS0 10-254) (natural protein)”, in assay [1], the percent dimer (with 1 mM TCEP) is 60%, the percent dimer (without TCEP) was found to be 58%, the percent higher order oligomer (with 1 mM TCEP) is 1.5% and the percent higher order oligomer (without TCEP) came out at 6%. In assay [1], this substance gave a percent monomer (with 1 mM TCEP) of 30%, a percent monomer (without TCEP) of 29% and a stoichiometry N of 2. Further, in assay [2], the percent dimer (holo protein) was 65.6%; the stoichiometry N was 2 and 4.
